Paper PMC10460880, “Cathepsin K‐Activated Probe for Fluoro‐Photoacoustic Imaging of Early Osteolytic Metastasis” (Advanced Science, 2023)

What was measured:
cathepsin K (CTSK) [1] = molecular target: T1, cathepsin K (CTSK) (Homo sapiens, UniProt P43235); assay: CTSK activation of probe adsorbed on HA; type: biochemical; conditions: probe 10 μM on HA 10 mg/mL (30 min), then CTSK 200 ng/mL, n = 3
T1 sequence (P43235 115-329): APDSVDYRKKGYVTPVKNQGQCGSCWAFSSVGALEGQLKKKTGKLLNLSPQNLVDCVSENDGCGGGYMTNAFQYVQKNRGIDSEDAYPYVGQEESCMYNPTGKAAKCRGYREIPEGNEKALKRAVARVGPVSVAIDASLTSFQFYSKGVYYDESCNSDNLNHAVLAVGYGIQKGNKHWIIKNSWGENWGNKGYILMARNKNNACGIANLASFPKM
Description: In Vitro bone-binding and CTSK activation assay. Hydroxyapatite (HA) was used as a substitute for bone in vitro to evaluate the bone-binding ability of CTSK-APPA and CTSK-APP. CTSK-APPA or CTSK-APP (10 μM) was mildly stirred with HA (10 mg/mL) at 37 °C for different times (0, 10, 30, 60, and 120 min). The mixture was centrifugated at 4000 g for 5 min and then washed with a 10-fold excess of PBS (1×) three times. The efficiency of HA binding was determined from the fluorescence intensities of the precipitation according to the equation: (F – Fblank)/(F0 – Fblank)*100%, where F represents the fluorescence intensity of the precipitation incubated with HA for a determined time, and Fblank represents the blank fluorescence intensity. After verifying the appropriate bone-binding time, CTSK-APPA or CTSK-APP (10 μM) was mixed with HA (10 mg/mL) at 37 °C for 30 min, and then CTSK (200 ng/mL) was added to the corresponding mixture and incubated at 37 °C for another 1 h under mild stirring. The mixture was centrifugated at 4000 g for 5 min and then washed with a 10-fold excess of MES buffer (50 mM, pH 6.0) three times. Fluorescence images were captured by using the IVIS Spectrum imaging system with excitation at 660 ± 10 nm and emission at 710 ± 10 nm. PA images were captured by using a MSOT scanner with excitation at 700 nm. […]

[2] = Renal clearance efficiency study; type: in vivo, BALB/c nude mice; conditions: mice, i.v. 50 μM, 200 μL; urine, UV absorbance at 615 nm; n = 3
Description: Bone marrow toxicity analysis. The bone marrow toxicity of CTSK-APPA and CTSK-APP was assessed by blood analyses in mice. SPF grade 4-week-old BALB/c nude mice were intravenously injected with CTSK-APPA(50 μM, 200 μL) or saline (200 μL). The blood samples were collected in anticoagulant tubes at 24 h post-injection and stored at 4°C. The red blood count (RBC) and white blood count (WBC) were further measured.
Renal clearance efficiency studies. SPF grade 4-week-old BALB/c nude mice were intravenously injected with CTSK-APPA or CTSK-APP (50 μM, 200 μL) and placed in metabolic cages. The urine was collected at 3, 6, and 24 h post-injection, and then centrifuged at 5000 r.p.m. for 5 min. The supernatants containing excreted probes were quantified by using a UV-vis absorption spectrometer. […]
In vivo Bioluminescence, DR, CT, and MR imaging. […] Then BL imaging was recorded on an IVIS Spectrum imaging system at 10 min post-injection under anesthesia using isoflurane. All data were analyzed with the Living Image software. DR, CT, and MR imaging were recorded on an IVIS Spectrum imaging system, a single-photon emission computed tomography imaging system, and a preclinical magnetic resonance solution system, respectively.
Real-time tumor imaging. […] Fluorescence and PA images were acquired at 0, 1, 2, 4, 8, 12, and 24 h post-injection. […]
Histology. […] Images were captured by using a fluorescence microscope. […]

cathepsin K (CTSK) [3] = molecular target: T1, cathepsin K (CTSK); assay: Kinetic assay (Michaelis-Menten) of probe cleavage by CTSK; type: biochemical
Description: In vitro analysis of cathepsin K (CTSK) activation, selectivity, and sensitivity studies.
Probe CTSK-APPA, D-CTSK-APPA, or CTSK-APP (10 μM) was incubated with CTSK in MES buffer (50 mM, pH 6.0) containing 0.1% DMSO, 2 mM ethylene diamine tetraacetic acid (EDTA), 4 mM dithiothreitol (DTT) and 0.15% chondroitin sulfate (CS) at 37 °C for 1 h. After incubation at the indicated time, UV-Vis spectra, fluorescence spectra, fluorescence images, and PA images of the solutions were recorded. […]
PA images were captured by using a MSOT scanner with
Kinetic assay. Different concentrations of CTSK-APPA or CTSK-APP (1, 2, 5, 10, 20, or 50 μM) were incubated with CTSK (100 ng/mL) in MES buffer containing 0.1% DMSO, 2mM EDTA, 4mM DTT, and 0.15% CS at 37 °C for 5 min. Fluorescence intensities of solution were measured for quantification analyses by a microplate reader (BioTek, Synergy 2) with excitation at 690 nm and emission at 720 nm. The kinetic parameters were calculated according to the Michaelis-Menten equation shown below: V = Vmax×[S]/(Km + [S]), where V is initial velocity, and [S] is substrate concentration.
(1 picture or pasted object on this page, not shown here)

Cbz‐Leu‐Arg‐OH [CTSK-APPA]
fluorescence on/off ratio of HA-adsorbed probe (cathepsin K (CTSK) [1]; Ex 660 nm, 720 nm): 5.1
enhancement factor for PA signal of HA-adsorbed probe (cathepsin K (CTSK) [1]; Ex 700 nm): approximately 2.8
renal clearance efficiency 24 h post-injection [2]: 58.4%
catalytic efficiency (kcat/Km) (cathepsin K (CTSK) [3]; from Km and kcat): 890000 M⁻¹ s⁻¹
Km (cathepsin K (CTSK) [3]; probe 1-50 μM, CTSK 100 ng/mL, MES buffer, 37 °C, 5 min, Ex 690/Em 720 nm, n = 3, read-out: Michaelis–Menten constant (Km)): 22.9 µM
catalytic rate constant (kcat) (cathepsin K (CTSK) [3]; probe 1-50 μM, CTSK 100 ng/mL, MES buffer, 37 °C, 5 min, n = 3): 20.4 s⁻¹
